{
  "source": "FireProtDB (doi:10.1002/pro.5560031114)",
  "proteins": {"B1": {"name": "Regulatory protein rop wild type, P03051 (protein)", "chain": "MTKQEKTALNMARFIRSQTLTLLEKLNELDADEQADICESLHDHADELYRSCLARFGDDGENL"}},
  "conditions": "Escherichia coli, pH 7, Thermal, DSC, Na phosphate 100 mM, NaCl 200 mM, reversible: yes, whole UniProt chain shown",
  "note": "Values joined by “and” are separate entries in the source; they are usually repeats but may differ in a detail not shown here. Equal entries are not always repeated.",
  "data": [
    {"protein": "B1", "values": [
      {"measurement": "unfolding free energy", "setting": "74.6 °C", "value": "3.1 kcal/mol and 5.6 kcal/mol"},
      {"measurement": "unfolding enthalpy (calorimetric)", "value": "114 kcal/mol and 83.1 kcal/mol and 94.3 kcal/mol"},
      {"measurement": "unfolding enthalpy (van 't Hoff)", "value": "132 kcal/mol and 79.8 kcal/mol and 104 kcal/mol"}
    ]}
  ]
}
